From patent publication US20260191905A1 (MODERNATX, published 2026) come the findings set out here.

Assay [1] addresses T1, human GPC3 recombinant protein (human, UniProt P51654 25-559).
T1 construct: also called huGPC3; Human GPC3 protein
Description: SPR (Biacore), VHH-His over human GPC3 on CM5; fit 87.8 - 17.34 nM; Rmax 38.9 RU; Chi2 0.636. The protocol:
(§1) Affinities of the 19 VHH-His tagged domains were then determined by BiaCore assay. Human GPC3 protein (Sino biological cat. nr. 10088-H08H-500) was immobilized on CM5 sensor chip (GE Healthcare) as antigen. Purified VHH-His tagged domains were diluted in BiaCore buffer (0.01 M HEPES pH 7.4, 0.15 M NaCl, 3 mM EDTA, 0.05% P20) to 500 nM and injected over 2 minutes at […] followed by a half dilution series to 7.8 nM. 10 μl of 10 mM NaOH/1M NaCl were injected between samples and then off-rate wash was 5 minutes.
On the technique in general: SPR reads the build-up and loss of mass on a sensor chip optically.

Assay [2] has as its target T1, human GPC3 recombinant protein. Description: SPR (Biacore), summary table; Chi2 0.636; Profile 'Very good'.
The target is the same in assay [3]. Description: SPR (Biacore) off-rate screen, periplasmic extract over human GPC3 on CM5; R0 107.0. The protocol: (§2) Human GPC3 protein in acetate buffer, pH 5.0, was immobilized in a sensor chip CM5 (GE Healthcare; Cat. Nr. BR-1005-30; Lot. Nr.10245232) and successful immobilization was confirmed by using a commercially available human GPC3 antibody (R&D cat. nr. MAB2119) and the anti-GPC3-VHH-Fc (both at 10 μg/mL). Periplasmic extracts from the MP were diluted in Biacore Buffer (0.01 M HEPES pH 7.4, 0.15 M NaCl, 3 mM EDTA, 0.05% P20) and injected over 2 minutes at 30 μL/min. 10 μl of 10 mM NaOH/1M NaCl were injected between samples and off-rates were measured over 5 minutes. Off-rate ([…]) were calculated using BIACORE software 1:1 interaction Langmuir binding model.

The target is the same in assay [4]. Description: SPR (Biacore) off-rate screen, periplasmic extract over human GPC3 on CM5; R0 45.4. The protocol:
as §2

Assay [5] shares this target. Description: SPR (Biacore) off-rate screen, periplasmic extract over human GPC3 on CM5; R0 24.6. The protocol:
as §2

Assay [6] addresses T2, human GPC3 on HepG2 cells (human, UniProt P51654 25-554).
T2 construct: whole, on cells
Description: FACS, periplasmic extract 1:5 + anti-c-myc + GAM-APC on HepG2, well H1; same on A-431: 0.24%. Background: In flow cytometry, cells or beads pass a laser one at a time.

Assay [7] concerns the target T1, human GPC3 recombinant protein. Description: SPR (Biacore), summary table; Chi2 0.281; Profile 'Medium'; FIG. 18 prints 2.97E-09. How it is done: as §1
The target in assay [8] is human GPC3 on Jurkat E6.1 cells (human) (UniProt P51654). Description: FACS, 1 µg/ml VH + anti-His-FITC; share of events in the FL1-A+ gate (from 10^5); secondary only 0.21 [23F].
human GPC3 on Jurkat E6.1 cells (human), sequence (P51654 25-554 limits assumed): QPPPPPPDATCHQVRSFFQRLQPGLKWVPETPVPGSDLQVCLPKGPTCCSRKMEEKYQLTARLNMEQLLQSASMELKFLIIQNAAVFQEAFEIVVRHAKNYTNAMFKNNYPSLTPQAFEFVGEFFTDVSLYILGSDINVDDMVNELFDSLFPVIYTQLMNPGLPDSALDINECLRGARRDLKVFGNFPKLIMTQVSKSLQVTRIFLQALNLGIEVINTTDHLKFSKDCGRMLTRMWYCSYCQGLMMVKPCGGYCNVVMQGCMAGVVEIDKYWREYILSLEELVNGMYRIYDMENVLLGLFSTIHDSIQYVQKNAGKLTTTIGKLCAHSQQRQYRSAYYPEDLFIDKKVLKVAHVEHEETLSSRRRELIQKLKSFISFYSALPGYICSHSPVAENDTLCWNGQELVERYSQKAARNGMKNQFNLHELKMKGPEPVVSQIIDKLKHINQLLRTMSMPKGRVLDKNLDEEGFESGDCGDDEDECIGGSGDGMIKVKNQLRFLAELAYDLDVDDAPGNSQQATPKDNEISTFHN
Assay [9] concerns the target T2, human GPC3 on HepG2 cells. Description: FACS, phage-displayed clone on HepG2, well H1; same clone on A-431 (no GPC3): 1.36%.
Assay [10] addresses T1, human GPC3 recombinant protein. Description: SPR (Biacore), VHH-His over human GPC3 on CM5; fit 250 - 7.8 nM; Rmax 8.15 RU; Chi2 0.281. The protocol: as §1
The target of assay [11] is T2, human GPC3 on HepG2 cells. Description: FACS, periplasmic extract 1:5 + anti-c-myc + GAM-APC on HepG2, well H1; same on A-431: 759.64.
The target in assay [12] is T2, human GPC3 on HepG2 cells. Description: FACS, phage-displayed clone on HepG2, well H1; same clone on A-431 (no GPC3): 1059.31.
For assay [13], the target named is T1, human GPC3 recombinant protein. Description: SPR (Biacore) off-rate screen, periplasmic extract over human GPC3 on CM5; R0 59.0. How it is done:
as §2

Assay [14] shares this target. Description: SPR (Biacore) off-rate screen, periplasmic extract over human GPC3 on CM5; R0 41.0. How it is done: as §2
For assay [15] the target is unchanged. Description: SPR (Biacore) off-rate screen, periplasmic extract over human GPC3 on CM5; R0 71.6. The protocol:
as §2

Assay [16] deals with T2, human GPC3 on HepG2 cells. Description: FACS, periplasmic extract 1:5 + anti-c-myc + GAM-APC on HepG2, well A2; same on A-431: 0.21%.
For assay [17], the target named is T2, human GPC3 on HepG2 cells. Description: FACS, phage-displayed clone on HepG2, well A2; same clone on A-431 (no GPC3): 0.72%.
Assay [18] has as its target T1, human GPC3 recombinant protein. Description: SPR (Biacore), VHH-His over human GPC3 on CM5; fit 250 - 7.8 nM; Rmax 11.3 RU; Chi2 0.365. The protocol:
as §1

The target in assay [19] is T2, human GPC3 on HepG2 cells. Description: FACS, periplasmic extract 1:5 + anti-c-myc + GAM-APC on HepG2, well A2; same on A-431: 753.37.
In assay [20] the target is T2, human GPC3 on HepG2 cells. Description: FACS, phage-displayed clone on HepG2, well A2; same clone on A-431 (no GPC3): 1042.47.
Assay [21] has as its target T1, human GPC3 recombinant protein. Description: SPR (Biacore), summary table; Chi2 0.365; Profile 'Medium'; FIG. 18 prints 3.82E-09.
For assay [22] the target is unchanged. Description: SPR (Biacore) off-rate screen, periplasmic extract over human GPC3 on CM5; R0 56.5. The protocol: as §2
For assay [23] the target is unchanged. Description: SPR (Biacore) off-rate screen, periplasmic extract over human GPC3 on CM5; R0 6.06; asterisk not explained on the sheet. The protocol:
as §2

The target is the same in assay [24]. Description: SPR (Biacore) off-rate screen, periplasmic extract over human GPC3 on CM5; R0 30.5. How it is done:
as §2

T1 sequence (P51654 25-559 limits assumed): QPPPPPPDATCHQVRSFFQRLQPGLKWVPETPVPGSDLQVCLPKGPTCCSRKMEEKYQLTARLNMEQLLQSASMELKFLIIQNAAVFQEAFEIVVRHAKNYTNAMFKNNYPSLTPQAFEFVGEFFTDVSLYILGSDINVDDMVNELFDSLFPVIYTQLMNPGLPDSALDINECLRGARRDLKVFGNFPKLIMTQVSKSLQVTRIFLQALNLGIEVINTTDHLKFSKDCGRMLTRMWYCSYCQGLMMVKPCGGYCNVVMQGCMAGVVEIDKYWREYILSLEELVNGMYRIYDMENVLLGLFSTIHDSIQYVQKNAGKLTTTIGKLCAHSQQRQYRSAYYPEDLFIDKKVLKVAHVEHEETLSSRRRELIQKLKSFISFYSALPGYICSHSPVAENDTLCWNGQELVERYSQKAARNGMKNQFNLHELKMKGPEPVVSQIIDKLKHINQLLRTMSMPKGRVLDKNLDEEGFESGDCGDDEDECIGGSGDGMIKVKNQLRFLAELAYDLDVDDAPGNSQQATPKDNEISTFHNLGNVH
T2 sequence (P51654 25-554 limits assumed): as the sequence (P51654 25-554 limits assumed) above

B1: anti-GPC3 VHH-His tagged domain VHH2 (VHH)
VHH: QVQLVESGGGLVQPGGSLRLSCAASGFTFSNYLMHWVRQAPGKGLEWLSNINSDGSSTYYADSVKGRFTISRDNSKNTLYLQMNSLRAEDTAVYYCTVGAFDYWGQVTTGTVSS
notes: Produced from a mammalian expression vector as a His fusion; not shown: His tag
Turning to B1, in assay [1], the Ka amounted to 3.66e+08 M⁻¹; the Kd – broadly, the concentration at which binding is half-saturated – was found to be 2.73 nM; the koff (commonly a measure of how fast the partners let go of each other) was determined as 0.000967 s⁻¹; the kon (usually a measure of how fast the partners come together) was found to be 354000 M⁻¹ s⁻¹. In addition, the Kd in assay [2] came to 2.73 nM. Moreover, the koff in assay [3] stood at 0.00184 s⁻¹.

B2: VH20 (VHH)
VHH: EVQLVESGGGLVQPGGSLRLSCAASGFTFSSYAMSWVRQAPGKEPEWISSISGSGSSTYYADSLKGRFTISRDNSKNTLYLQMNSLRAEDTAVYYCSKDPRFGEPPFDYWGQGTTVTVSS
notes: also called VHH20
As for B2, the koff in [4] amounted to 0.00249 s⁻¹.

B3: VH24 (VHH)
VHH: EVQLVESGGGLVQPGGSLRLSCAASGFTFSSYAMSWVRQAPGKEPEWVSSISGGGTSTYYADSLEGRFTISRDNSKNTLYLQMNSLRAEDTAVYYCSKDPRFGEPPFDYWGQGTLVTVSS
notes: also called VHH24
Consider B3, for which the koff in [5] amounted to 0.00367 s⁻¹.

B4: anti-GPC3 VHH-His tagged domain VHH11 (VHH)
VHH: EVQLVESGGGLVQPGGSLRLSCAASGFTFSSYAMSWVRQAPGKEPEWVSSISGGGSSTYYADSLKGRFTISRDNSKNTLYLQMNSLRAEDTAVYYCSRDPRFREPPFDYWGQGTLVTVSS
notes: as for B1
For B4, the figures for the % of Binding in assay [6] and in assay [9] were 0.57% and 66.2%, respectively. For the same molecule, the Kd in assay [7] came out at 2.19 nM; in [10], 2.97 nM. The FL1-A+ in assay [8] came out at 0.78. For the same molecule, the Ka in assay [10] was 3.37e+08 M⁻¹. Further, the koff stood at 0.00261 s⁻¹ in [10] and 0.00325 s⁻¹ in assay [13]. Also, the on-rate (kon) in assay [10] is 880000 M⁻¹ s⁻¹. In addition, the Mean FL4-A in assay [11] stood at 842. In addition, the Mean FL2-A in [12] is 22600.

B5: VH34 (VHH)
VHH: QVQLVESGGGLVRPGGSLRLSCAASGFTFSSYAMSWVRQAPGKEPEWVSSISGGGSSTYYADSLKGRFTISRDNSKNTLYLQMNSLRAEDTAVYYCSRDPRFGEPPFDYWGQGTLVTVSS
notes: also called VHH34
As to B5, the koff in [14] worked out at 0.00507 s⁻¹.

B6: anti-GPC3 VHH-His tagged domain VHH13 (VHH)
VHH: EVQLVESGGGLVQPGGSLRLSCAASGFTFSSYAMSWVRQAPGKEPEWVSSISGGGGSTYYADSLKGRFTISRDNSKNTLYLQMNRLRAEDTAVYYCARDPMFGERPFDYWGQGTLVTVSS
notes: as for B1
For B6, the koff in [15] is 0.00607 s⁻¹. Further, the % of Binding in assay [16] worked out at 0.3%. Also, in assay [17], the % of Binding is 61.4%. Also, in [18], the Ka was found to be 2.62e+08 M⁻¹, the Kd was found to be 3.82 nM, the koff came to 0.00538 s⁻¹ and the kon was 1.41e+06 M⁻¹ s⁻¹. In addition, the Mean FL4-A in assay [19] is 752. Besides, the Mean FL2-A in assay [20] was found to be 26600. For the same molecule, in assay [21], the Kd was found to be 3.57 nM.

B7: VH22 (VHH)
VHH: EVQLVESGGGLVQPGGSLRLSCAASGFTFSSYAMSWVRQAPGKEPEWVSSISGGGSSTYYADSLKGRFTISRDNSKNTLYLQMDSLRAEDTAVYYCSRDPRFGEPPFDYWGQGTLVTVSS
notes: also called VHH22
In the case of B7, the koff in assay [22] is 0.00282 s⁻¹.

B8: VH30 (VHH)
VHH: QVQLVESGGGLVQPGGSLRLSCAASGFIFSSYAMSWVRQAPGKEPEWVSSISGGGSSTYYADSLEGRFTISRDNSKNTLYLQMNSLRAEDTAVYYCSKDPRFFEPPFDYWGQGTLVTVSS
notes: also called VHH30
In the case of B8, the koff in assay [23] came to 0.00983 s⁻¹.

B9: VH25 (VHH)
VHH: EVQLVESGGGLVQPGGSLRLSCAASGFTFSSYAMSWVRQAPGKESEWVSSISGSGSSTYYADSLKGRFTISRDNSKNTLYLQMNSLRAEDTAVYYCSKDPRFGEPPFDYWGQGTLVTVSS
notes: also called VHH25
On to B9, for which the koff in assay [24] was determined as 0.00378 s⁻¹.
